Assay results reported in the supplement of paper PMC6757056.
± gives the standard deviation of the averaged measurements.

B1: library; a variant is named by its letters at N, in order (parent)
chain: GCUGUCACCGGUGCUUGGUACGUUAUAUUCAGCCGGUCUGAUGAGUCUNNNNNNAGACGAAACAGC

Tests used:
(6R,S)-folinic acid [1] = variants of: B1; test: FACS-Seq fitted mean relative fluorescence mCherry/BFP without ligand (log10 relative fluorescence); HEK293T overexpressing SLC46A1; higher = higher reporter protein expression; conditions: without (6R,S)-folinic acid; ligand present: no
Outline: (§1)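 Lentivirally transduced HEK293T libraries carried an mCherry reporter with the ribozyme switch and an EF1α-BFP marker. Transduced cells were enriched, then incubated with or without ligand for 48 h and sorted into 6 bins by mCherry/BFP. Genomic DNA from each bin was PCR-amplified, barcoded and sequenced on MiSeq. Fluorescence was the fitted normal mean of log10(mCherry/BFP) bin counts, scaled to five spiked-in control ribozymes.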

(6R,S)-folinic acid [2] = variants of: B1; test: normalized RNA/DNA level without ligand (relative to sTRSVctl = 100) (log10 (% of sTRSVctl)); HEK293T overexpressing SLC46A1; higher = less ribozyme self-cleavage, higher mRNA level; conditions: without (6R,S)-folinic acid; ligand present: no
Outline: (§2)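 Total RNA, extracted with EDTA 72 h after HEK293T cells were transfected with 4 µg per 6-well well of reporter-linked ribozyme switch library plasmids, was reverse-transcribed, amplified, barcoded and sequenced. Ligand, if used, was added 1 h before transfection. RNA level was derived from RNA reads divided by DNA reads and normalized to a spiked-in non-cleaving sequence or to the top sequences. This was multiplied by 100 and log10-transformed, with the top set of 25 sequences and a ≥100 DNA read minimum.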

(6R,S)-folinic acid [3] = variants of: B1; test: FACS-Seq fitted mean relative fluorescence mCherry/BFP with ligand (log10 relative fluorescence); HEK293T overexpressing SLC46A1; ligand concentration (+) FACS-Seq: 6 mM; higher = higher reporter protein expression; conditions: with (6R,S)-folinic acid; ligand present: yes
Outline: as §1

(6R,S)-folinic acid [4] = variants of: B1; test: normalized RNA/DNA level with ligand (relative to sTRSVctl = 100) (log10 (% of sTRSVctl)); HEK293T overexpressing SLC46A1; ligand concentration (+) RNA-Seq: 6 mM; higher = less ribozyme self-cleavage, higher mRNA level; conditions: with (6R,S)-folinic acid; ligand present: yes
Outline: as §2

Row | Variant | FACS-Seq fitted mean (log10) ((6R,S)-folinic acid [1]) | normalized RNA/DNA level without ligand (log10) ((6R,S)-folinic acid [2]) | FACS-Seq fitted mean (log10) ((6R,S)-folinic acid [3]) | normalized RNA/DNA level with ligand (log10) ((6R,S)-folinic acid [4])
1 | GCUGUCACCGGUGCUUGGUACGUUAUAUUCAGCCGGUCUGAUGAGUCUUAGCCGAGACGAAACAGC | 0.635 ± 0.13 | 1.86 ± 0.036 | 0.409 ± 0.069 | 1.99 ± 0.041
2 | GCUGUCACCGGUGCUUGGUACGUUAUAUUCAGCCGGUCUGAUGAGUCUCAGCCUAGACGAAACAGC | 0.13 ± 0.12 | 2.052 ± 0.016 | -0.235 ± 0.22 | 2.05 ± 0.061
3 | GCUGUCACCGGUGCUUGGUACGUUAUAUUCAGCCGGUCUGAUGAGUCUAAGCCUAGACGAAACAGC | 0.313 ± 0.032 | 2.056 ± 0.015 | 0.326 ± 0.052 | 2.03 ± 0.027
4 | GCUGUCACCGGUGCUUGGUACGUUAUAUUCAGCCGGUCUGAUGAGUCUGAGCCUAGACGAAACAGC | 0.306 ± 0.041 | 2.076 ± 0.012 | 0.5133 ± 0.00087 | 2.062 ± 0.0057
5 | GCUGUCACCGGUGCUUGGUACGUUAUAUUCAGCCGGUCUGAUGAGUCUUAGCCUAGACGAAACAGC | 0.641 ± 0.044 | 2.02 ± 0.045 | 0.19 ± 0.0051 | 2.04 ± 0.037
6 | GCUGUCACCGGUGCUUGGUACGUUAUAUUCAGCCGGUCUGAUGAGUCUGAGCGAAGACGAAACAGC | 0.146 ± 0.064 | 1.997 ± 0.0086 | 0.145 ± 0.15 | 2.035 ± 0.011
7 | GCUGUCACCGGUGCUUGGUACGUUAUAUUCAGCCGGUCUGAUGAGUCUUAGCGGAGACGAAACAGC | -0.127 ± 0.027 | 1.671 ± 0.0027 | 0.217 ± 0.06 | 1.96 ± 0.023
8 | GCUGUCACCGGUGCUUGGUACGUUAUAUUCAGCCGGUCUGAUGAGUCUGAGCUAAGACGAAACAGC | 0.516 ± 0.2 | 2.0209 ± 0.0014 | 0.415 ± 0.15 | 2.04 ± 0.035
9 | GCUGUCACCGGUGCUUGGUACGUUAUAUUCAGCCGGUCUGAUGAGUCUCAGCUGAGACGAAACAGC | 0.118 ± 0.025 | 2.073 ± 0.01 | 0.1 ± 0.12 | 2.06 ± 0.022
10 | GCUGUCACCGGUGCUUGGUACGUUAUAUUCAGCCGGUCUGAUGAGUCUAAGGAAAGACGAAACAGC | 0.513 ± 0.14 | 1.937 ± 0.01 | 0.429 ± 0.1 | 2 ± 0.023
11 | GCUGUCACCGGUGCUUGGUACGUUAUAUUCAGCCGGUCUGAUGAGUCUUAGGAAAGACGAAACAGC | 0.503 ± 0.15 | 1.884 ± 0.01 | 0.822 ± 0.011 | 1.98 ± 0.038
12 | GCUGUCACCGGUGCUUGGUACGUUAUAUUCAGCCGGUCUGAUGAGUCUCAGGACAGACGAAACAGC | 0.301 ± 0.073 | 1.97 ± 0.022 | 0.0891 ± 0.079 | 1.97 ± 0.078
13 | GCUGUCACCGGUGCUUGGUACGUUAUAUUCAGCCGGUCUGAUGAGUCUUAGGACAGACGAAACAGC | 0.556 ± 0.12 | 1.982 ± 0.019 | 0.551 ± 0.11 | 2 ± 0.025
14 | GCUGUCACCGGUGCUUGGUACGUUAUAUUCAGCCGGUCUGAUGAGUCUAAGGAGAGACGAAACAGC | 0.211 ± 0.081 | 1.789 ± 0.017 | 0.263 ± 0.14 | 2 ± 0.046
15 | GCUGUCACCGGUGCUUGGUACGUUAUAUUCAGCCGGUCUGAUGAGUCUAAGGAUAGACGAAACAGC | 0.466 ± 0.0051 | 1.917 ± 0.0072 | 0.53 ± 0.073 | 1.966 ± 0.013
16 | GCUGUCACCGGUGCUUGGUACGUUAUAUUCAGCCGGUCUGAUGAGUCUGAGGAUAGACGAAACAGC | 0.372 ± 0.013 | 1.963 ± 0.0066 | 0.0226 ± 0.65 | 2.02 ± 0.033
17 | GCUGUCACCGGUGCUUGGUACGUUAUAUUCAGCCGGUCUGAUGAGUCUUAGGAUAGACGAAACAGC | 0.37 ± 0.051 | 1.9235 ± 0.00039 | 0.358 ± 0.23 | 2 ± 0.052
18 | GCUGUCACCGGUGCUUGGUACGUUAUAUUCAGCCGGUCUGAUGAGUCUGAGGCAAGACGAAACAGC | 0.286 ± 0.031 | 2.017 ± 0.0044 | 0.296 ± 0.25 | 2.05 ± 0.026
19 | GCUGUCACCGGUGCUUGGUACGUUAUAUUCAGCCGGUCUGAUGAGUCUAAGGCCAGACGAAACAGC | 0.18 ± 0.073 | 2.059 ± 0.012 | 0.288 ± 0.18 | 2.04 ± 0.081
20 | GCUGUCACCGGUGCUUGGUACGUUAUAUUCAGCCGGUCUGAUGAGUCUCAGGCUAGACGAAACAGC | 0.511 ± 0.14 | 2.055 ± 0.0024 | 0.544 ± 0.066 | 2.01 ± 0.036
21 | GCUGUCACCGGUGCUUGGUACGUUAUAUUCAGCCGGUCUGAUGAGUCUAAGGGAAGACGAAACAGC | 0.125 ± 0.041 | 1.949 ± 0.0036 | 0.0354 ± 0.14 | 2.03 ± 0.03
